Measurements as given in the DeepSol protein solubility set.

Assay: soluble on expression in E. coli; label from the status in PepcDB or PDB records
In the case of “MSLYKKYLLLGVSLCMLNACNESKSVSLEGSLDGIQADSIYLYQVDNEHYGSVKLIKSIAVTDGRFAYPTDSIQAGLYCFSLQNMERGEYLQQYANLFLEPKSMQLTLGKDKYDQLSLHATGSALQEQYEALQEAKYVAGNRMVLDSLDHMFYEAREKGDREEMERIREVSSPYYESASEQTRKLINGEIAKNKGSYFGLYLYYTYRFQNHTFNTVEEIDEARNFIGSFDEASRRSGIYVKMQEGLDKFARCATGSVAPAITGIDLKGNSVSLNDFKGKYVLVDFWFAGCSWCRKETPYLLKTYNAFKDKGFTIYGVSTDRREEDWKKAIEEDKSYWNQVLLQKDDVKDVLESYCIVGFPHIILVDPEGKIVAKELRGDDLYNTVEKFVNGAKEGHHHHHH”, the “soluble on expression in E. coli” value is reported as “soluble”.
In the case of “MKIARLNLWHVPLTSHTAYYMADGKTCDTVETVVIAVQTDTGITGWGEVCPIPHYLPAYARGVAPALTELAPVILGADPVGVGALMERVDAVLHGHPYAKSALDIALWDITGQVAGLPLHALLGGWRAADMPLYHSITCIAPDDMARIAREAQAQGITQFQVKLGASGDWQTDVERLAKVREAVGPGPLVYGDWNCGATSLEAIRVGRAVAQLDIMLEQPCATLEDCARVQRATGLPMKIDELAHDTASLLTAHRLGIMDAVALKLSKFGGLSTTRRARDLCLHLGARMCIEDTWGSDITTAALLHLGAASEPGRVLNVCDLSGYVAPRLAPDAPVRANGRIAPPEGAGLGITVDRGALGVPDLILD”, the “soluble on expression in E. coli” value is reported as “soluble”.
In the case of “MNTHYVGPVLYTPKENVSEKLLKLFDADQPIIFCYTARFYDNVGESGKAIFDNMIKIADKIDASIIISTGNKKDELLALDIASKELKSGKVSIVDYVPLDMAYEKSDLVIHHGGHGSCLAQFYYGVPSVIIPTHTEREYNARMCEKLHVGKMLPRRELNSANLKNCINDVLNDITYKKSVRDWKEKVSGLEHHHHHH”, the “soluble on expression in E. coli” value is reported as “not soluble”.
With “MGHHHHHHSHMNSIVNGLYTFMSTTVVPAVTEQAANLVGGASALAEGATQALTQISQTALEWGSGSEDATASSEVFSWEQQGAAAASSDLQEDKKETTEDVHQEAIGASSPNTSIEWEVIHENPDETGPIRHNQFEMVQNNYEWMKNSK” the “soluble on expression in E. coli” value was “not soluble”.
For “MSLATLKDVAELAGVGLSTASRAISGKGPVSADAAARVKAAIAELNFRPSSIGRAMATQQLGIIGLFVPTFFGSYYGTILKQTDLELRAVHRHVVVATGCGESTPREQALEAVRFLIGRDCDGVVVISHDLHDEDLDELHRMHPKMVFLNRAFDALPDASFCPDHRRGGELAAATLIEHGHRKLAVISGPFTASDNVERLDGFFDELARHGIARDSVPLIESDFSPEGGYAATCQLLESKAPFTGLFCANDTMAVSALARFQQLGISVPGDVSVIGYDDDYSAAYAAPALTSVHIPTAELTQNAVRWLINQCYGTKWEIFREFPVTVSMRASVAREGHHHHHH”, the “soluble on expression in E. coli” value was “soluble”.
For “KLKIVEVPQEELFRDDDLLKSVYGILVTAHYRNSPDDLMLLGDMAFQKVIVGYSSENPVAVCQVVYEGGLTDKQIWDISNGLKNEGHLIPHRLIKYMRALDFGKLKGWRIMRIAVSPENQGKGIGSRVIEEVIKMAKGVDWIGSSFVADYSVLRFWIKNGFLPVYLSSIKNEE”, the “soluble on expression in E. coli” value was “not soluble”.
With “MTYSGLNLNQDKATKPQTVQIVRQGEATLYWFLLIHYRFRRERRETQSLLMTRNTLKFIPFWSYKHITYAIFLYSRLPENSGQEYLTQRKAEKATKNNLHLSRLVSPTLGVQTIQSFRLPLFVYKINF” the “soluble on expression in E. coli” value was “not soluble”.
For “MGSDKIHHHHHHENLYFQGMSVAHENARRIISDILGKQNIERVWFVGCGGSLTGFWPGKYFLDCEASKLAVGYITSNEFVHATPKALGKNSVVILASQQGNTAETVAAARVAREKGAATIGLVYQPDTPLCEYSDYIIEYQWARYPETVDPAQQKAAYSLWLALEILAQTEGYAQYDELVSAFGRFSDVVHGAQRQVQEDAQRFAAEWKDEKVVYMMGSGPSFGAAHQESICILLEMQWINSASIHSGEYFHGPFEITEPGTPFILLQSSGRTRPLDDRAIRFIERYQGKLQLIDADKLGIQDLSTDVGEYFCGLLHNCVLDVYNLALATARNHPLTTRRYMWKVEY”, the “soluble on expression in E. coli” value was “soluble”.
With “MCMRRTLYRLMIELTNGRFTSYILRKFAQSRLSSIIIPSYVKVFQINQDEMEKGLKEYRTLHELFTRKLKEGKRSIDTDASSIVSPVDGVFADYGPIEDAKTFDIKGKRYSIVDMLGNEERAQRYAGGTYMVIYLSPSHYHRIHSPLSGSVTERFVLGRKSYPVNAAGMEYGKEPLSKNYRSVTEVNSDGEHMALVKVGAMFVNSIELLHERDTVQKGEEMAYFTFGSTVVLLFEKDMIEVVQELKSGQELRLGEKIATRLAHKMAGDPLEHHHHHH” the “soluble on expression in E. coli” value was “soluble”.
With “MGSDKIHHHHHHMTSREDEIRDFLATHGYADWNRTPLAGDASSRRYQRLRSPTGAKAVLMDWSPEEGGDTQPFVDLAQYLRNLDISAPEIYAEEHARGLLLIEDLGDALFTEVINNDPAQEMPLYRAAVDLLIHLHDAQTPELARLDPETLSEMTRLAFSEYRYAILGDAAEDNRKRFEHRFAQILSAQLEGDMVFVHRDFHAQNLLWLPEREGLARVGVIDFQDAKLGHRAYDLVSLLQDARRDVPAQVEAQMIDHYIQATGVDESHFRSAYAVIAVQRNMRILGIFARLSQRFGKRHYIEFVPRVWAHFERGLAHPALASAAEEILNALPAPAPEVLERLRA” the “soluble on expression in E. coli” value was “not soluble”.
In the case of “GATCLSQYCADKARDGVCDEACNSHACQWDGGDCSLTMENPWANCSSPLPCWDYINNQCDELCNTVECLFDNFECQGNSKTCKYDKYCADHFKDNHCNQGCNSEECGWDGLDCAADQPENLAEGTLVIVVLMPPEQLLQDARSFLRALGTLLHTNLRIKRDSQGELMVYPYYGEVAGSKVFLEIDNRQCVQDSDHCFKNTDAAAALLASHAIQGTLSYPLVSVVSESLTPERTQ”, the “soluble on expression in E. coli” value is reported as “soluble”.
With “MGSDKIHHHHHHMKIVVAKNIGFCFGVERAIRTVEELLDEGKKVVTDGEIVHNKQVMEQLTKKGLKVSSEMTDGEVFVVRAHGIPKDRLEELKKIFPEVVDLTCPIVSQLFKTAQRYAKERKVIVFGKEDHPEMVALRGYAPAIVTKVPFKLEEKKVVFLSQTTSSLEEYKEFVAAMIRMNEFEEAVFLNTICPVTVNREREVEELSKICDLSIVVGGKHSSNTGKLFRIASKHSKTIWIESPDELPADVVKYGTVCVFSGTSTPNSLIENVVRKLKEMEGKRDGTI” the “soluble on expression in E. coli” value was “not soluble”.
For “MKNSFQTLKTLTTKSGTYGYYDLQELERKGVAEVSRLPFSIRVMLESLLRNEDGYQVTREDIEALARWRPDPGEINVPLKLARVILQDFTGVPAVVDLAAMRDAIKAKGGDPKRINPVVPADLVIDHSVQVDAFGTAYAFFYNVEKEYERNRERYLLLKWAQNALENFRVVPPGTGIVHQVNIEYLTKVVMTGKRDGLTLAFPDSLVGTDSHTTMVNGLGVLGWGVGGIEAEAVMLGQPYYMLAPRVVGFKLYGELPEGATATDLVLTVTEMLRKHGVVGKFVEFYGPGVAKLSTPDRATIANMAPEYGATMGFFPVDEETLNYLRQTGRPEELVELVEAYTKAVGLFRTPEAEEKVQYSEYLELDLSAVEPSLAGPKRPQDRVPLKEVKKSFLAHLTKPVKERGFGLSEDQLQRKVLVKRRDEEFELTHGSVVIAAITSCTNTSNPSVMLGAGLLAKKAVEAGLDRKPWVKTSLAPGSKVVTDYLEMSGLMPFLEALGFHLVGYGCTTCIGNSGPLPEDIAKAVEEGNLVVAAVLSGNRNFEGRINPHVKANYLASPMLVVAYALAGRMDIDFTTEPLGFDPNGKPIYLKDIWPSMEEIREAIRKTLDPELFKKEYSKVFEGDERWQALPAPTGELYQWDPESTYIQNPPFFEDLGERKVEDIRGARVLLVLGDSVTTDHISPAGAIPVKSPAGQYLISKGVKPEDFNSYGSRRGNHEVMMRGTFANIRIKNLMLDGIEGGYAKKLPEGDVDFVYNVAMRYKAEGTPLLVIAGKEYGTGSSRDWAAKGTYLLGIRAVLAESFERIHRSNLVGMGVLPLEFLPGENRETLGLTGYEVYDILGLEDLKPRKLVDIVARREDGSEVRFQAIARLDTPVEVDYYKNGGILQTVLLNMLKEAKATE”, the “soluble on expression in E. coli” value was “soluble”.
For “SNAMSVIKIEKALKLDKVIFVDVRTEGEYEEDHILNAINMPLFKNNEHNEVGTIYKMQGKHEAIQKGFDYVSYKLKDIYLQAAELALNYDNIVIYCARGGMRSGSIVNLLSSLGVNVYQLEGGYKAYRNFVLEY”, the “soluble on expression in E. coli” value was “soluble”.
With “MSLALEVNMLTGGPTGTYIQIGRDIAKAASACGIEMTVHESAGSLENFLGVRQRPRTQFGIVQSDVLEYLKTFAADDPEVSRAIFGVRIAFPLYDEEVHLLARREIGSLKDLDGKRVSIGVENSGTFLTASLVLDLAEVAPGERRMMNQDDSLKALLAGDIDAFFYVAGAPAKIFASPEIDGERFHLVPVAEEVLRQVYKPTQIPAGSYPFQTGPVDAIAVKAVLMTYGYDPKRNAYHRESCKAVSDIAHVVSTHFPELQQSGHPKWKQVNLTDLPAGWDIGECVNAGLEPGYRLPCDPPEPAVAAPADASAESEANRAYRRQICAVVGEGHHHHHH” the “soluble on expression in E. coli” value was “soluble”.
In the case of “VYSDPLREAIAEAEQLVAAAPHIETEADLLEGLQYLAGCIAGCMHLAFDYERDHPFLQSGTGPFTKMGLDNPDTLYFGTRLQANRDYVVSGRRGTTTDLSFQLLGGEYTDYNVPASQAAFDDRELDIAADGSFEWRLRPSAPGQLVIREVYGDWSQQRGTLAIARLDTVGTAPPPLTRELMEKRYATAGSQLVNRVKTWLQFPQWFYLNIPVNTMVAPRLTPGGLATQYSSAGHFELRPGQALVITVPVSDAPYLGFQLGSMWYISLDYINHQTSLNASQAQADPDGKVRIVVAEQNPGVTNWVETLGHRRGFLQFRWQRVSRELTEADGPTVELVDFDAIPAALPHYQHNKISEDDWRARIALRQRQIATRMLG”, the “soluble on expression in E. coli” value is reported as “not soluble”.
In the case of “MFFKQFYDNHLSQASYLVGCQRTGEAIIIDPVRDLSKYIEVADSEGLTITQATETHIHADFASGIRDVAKRLNANIYVSGEGEDALGYKNMPSKTQFVKHGDIIQVGNVKLEVLHTPGHTPESISFLLTDLGGGSSVPMGLFSGDFIFVGDIGRPDLLEKSVQIKGSTEISAKQMYESVQNIKNLPDYVQIWPGHGAGSPCGKALGAIPISTIGYEKINNWAFNEIDETKFIESLTSNQPAPPHHFAQMKQVNQFGMNLYQSYDVYPSLDNKRVAFDLRSKEAFHGGHTKGTINIPYNKNFINQIGWYLDFEKDIDLIGDKSTVEKAKHTLQLIGFDKVAGYRLPKSGISTQSVHSADMTGKEEHVLDVRNDEEWNNGHLDQAVNIPHGKLLNENIPFNKEDKIYVHCQSGVRSSIAVGILESKGFENVVNIREGYQDFPESLKLEHHHHHH”, the “soluble on expression in E. coli” value is reported as “soluble”.
With “HHHHHSSGLVPRGSHMTNPAYFPQLSQLDVSGEMESTYEDIRLTLRVPWVAFGCRVLATFPGYLPLAWRRSAEALITRYAEQAADELRERSLLNIGPLPNLKERLYAAGFDDGEIEKVRRVLYAFNYGNPKYLLLITALSESMQMRPVGGAEVSSELRASIPKGHPKGMDPLLPLVDATKASTEVQGLLKRVADLHYHHGPASDFQALANWPKVLQIVTDEVLAPVARTEQYDAKSRELVTRARELVRGLPGSAGVQRSELMSMLTPNELAGLTGVLFMYQRFIADITISIIHITECLDGAEAASKSPFPI” the “soluble on expression in E. coli” value was “soluble”.
In the case of “MSLAKNRLRAIPLGGAGEVGRNMWVLEQNDEILVLDCGVMFPEADMLGVDLVLPDITYLRDQKDKIKAIVLTHGHEDHIGAVPYLVPELDFPPIYGTPLTLGMLAGKLKEHRLLDRARLVKMQAGESFTVGSFTIEPFSVAHSIPDTVGLAIDTPVGLAIYLTDWKFDHTPVDGRPTDLVKLSELGRRSPLLLITDCVRVESKGYTPSEQVVGEAFDSIFATAPGRIIVATFASNVSRVQQVIDSAEAYGRKVVVAGRSMENTTRIALELGYLRAQQGTLIRPQEAAGLADDQVAVICTGSQGEPMSALARMANRDYPHVKIKEGDTVVVSATPIPGNEVSVNRVINNLFRLGAEVIYGGSPSSLAVHVSGHAAQEELKMALAILRPEFVVPFHGDYRHMMLYRKLALGMGGLFSESNVIIPENEGHHHHHH”, the “soluble on expression in E. coli” value is reported as “not soluble”.
